Values quoted from earlier work in US20070032640A1, “Cytokine receptor” (priority 2001, published 2007).

B1: R231: IL-6R RL-SI double mutant at R231 and L232 (protein, UniProt P08887 20-468, looked up, variant R231S L232I)
Interleukin-6 receptor …: LAPRRCPAQEVARGVLTSLPGDSVTLTCPGVEPEDNATVHWVLRKPAAGSHPSRWAGMGRRLLLRSVQLHDSGNYSCYRAGRPAGTVHLLVDVPPEEPQLSCFRKSPLSNVVCEWGPRSTPSLTTKAVLLVRKFQNSPAEDFQEPCQYSQESQKFSCQLAVPEGDSSFYIVSMCVASSVGSKFSKTQTFQGCGILQPDPPANITVTAVARNPRWLSVTWQDPHSWNSSFYSIRFELRYRAERSKTFTTWMVKDLQHHCVIHDAWSGLRHVVQLRAQEEFGQGEWSEWSPEAMGTPWTESRSPPAENEVSTPMQALTTNKDDDNILFRDSANATSLPVQDSSSVPLPTFLVAGGSLAFGTLLCIAIVLRFKKTWKLRALKEGKTSMHPPYSLGQLVPERPRPTPVLVPLISPPVSPSSLGSDNTSSHNRPDARDPRSPYDISNTDYFFPR
B2: E278: IL-6R EF-AI double mutant at E278 and F279 (protein, UniProt P08887 20-468, looked up, variant E278A F279I)
Interleukin-6 receptor …: LAPRRCPAQEVARGVLTSLPGDSVTLTCPGVEPEDNATVHWVLRKPAAGSHPSRWAGMGRRLLLRSVQLHDSGNYSCYRAGRPAGTVHLLVDVPPEEPQLSCFRKSPLSNVVCEWGPRSTPSLTTKAVLLVRKFQNSPAEDFQEPCQYSQESQKFSCQLAVPEGDSSFYIVSMCVASSVGSKFSKTQTFQGCGILQPDPPANITVTAVARNPRWLSVTWQDPHSWNSSFYRLRFELRYRAERSKTFTTWMVKDLQHHCVIHDAWSGLRHVVQLRAQEAIGQGEWSEWSPEAMGTPWTESRSPPAENEVSTPMQALTTNKDDDNILFRDSANATSLPVQDSSSVPLPTFLVAGGSLAFGTLLCIAIVLRFKKTWKLRALKEGKTSMHPPYSLGQLVPERPRPTPVLVPLISPPVSPSSLGSDNTSSHNRPDARDPRSPYDISNTDYFFPR
B3: P162: IL-6R PE-LQ double mutant at P162 and E163, loop L3 (protein, UniProt P08887 20-468, looked up, variant P162L E163Q)
Interleukin-6 receptor …: LAPRRCPAQEVARGVLTSLPGDSVTLTCPGVEPEDNATVHWVLRKPAAGSHPSRWAGMGRRLLLRSVQLHDSGNYSCYRAGRPAGTVHLLVDVPPEEPQLSCFRKSPLSNVVCEWGPRSTPSLTTKAVLLVRKFQNSPAEDFQEPCQYSQESQKFSCQLAVLQGDSSFYIVSMCVASSVGSKFSKTQTFQGCGILQPDPPANITVTAVARNPRWLSVTWQDPHSWNSSFYRLRFELRYRAERSKTFTTWMVKDLQHHCVIHDAWSGLRHVVQLRAQEEFGQGEWSEWSPEAMGTPWTESRSPPAENEVSTPMQALTTNKDDDNILFRDSANATSLPVQDSSSVPLPTFLVAGGSLAFGTLLCIAIVLRFKKTWKLRALKEGKTSMHPPYSLGQLVPERPRPTPVLVPLISPPVSPSSLGSDNTSSHNRPDARDPRSPYDISNTDYFFPR
B4: I260: IL-6R I-D mutation at I260 (protein, UniProt P08887 20-468, looked up, variant I260D)
Interleukin-6 receptor …: LAPRRCPAQEVARGVLTSLPGDSVTLTCPGVEPEDNATVHWVLRKPAAGSHPSRWAGMGRRLLLRSVQLHDSGNYSCYRAGRPAGTVHLLVDVPPEEPQLSCFRKSPLSNVVCEWGPRSTPSLTTKAVLLVRKFQNSPAEDFQEPCQYSQESQKFSCQLAVPEGDSSFYIVSMCVASSVGSKFSKTQTFQGCGILQPDPPANITVTAVARNPRWLSVTWQDPHSWNSSFYRLRFELRYRAERSKTFTTWMVKDLQHHCVDHDAWSGLRHVVQLRAQEEFGQGEWSEWSPEAMGTPWTESRSPPAENEVSTPMQALTTNKDDDNILFRDSANATSLPVQDSSSVPLPTFLVAGGSLAFGTLLCIAIVLRFKKTWKLRALKEGKTSMHPPYSLGQLVPERPRPTPVLVPLISPPVSPSSLGSDNTSSHNRPDARDPRSPYDISNTDYFFPR

Test system: IL-6
Settings: IL-6 binding of IL-6R mutant, relative to wild type; cited from earlier work

Row | Molecule | Binding [%]
1 | B1 | 0
2 | B2 | 0
3 | B3 | <10
4 | B4 | 0
